According to US20260242478A1 (published 2026):

Tests used:
[1] = molecular target: T1, Anti-CD28 Fab (SEQ ID NOs: 696, 697); assay: phage binding ELISA; clonal phage on plate-captured biotinylated anti-CD28 Fab, anti-M13 HRP detection
T1 construct: In the phage ELISA the Fab was biotinylated and captured on neutravidin coated plates
T1 sequence (VH, as listed by the source, chain 1 of 2): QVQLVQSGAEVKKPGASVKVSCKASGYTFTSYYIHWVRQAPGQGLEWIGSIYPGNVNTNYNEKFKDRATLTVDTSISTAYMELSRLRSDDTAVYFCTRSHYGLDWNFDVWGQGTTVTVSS
T1 sequence (VL, as listed by the source, chain 2 of 2): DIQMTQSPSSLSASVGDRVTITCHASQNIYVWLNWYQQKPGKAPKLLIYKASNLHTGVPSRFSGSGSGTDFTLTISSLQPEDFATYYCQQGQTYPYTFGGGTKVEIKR
Description: (§1) Clonal phage were harvested as crude supematants and screened via standard ELISAs. […] Prior to the addition of clonal phage, wells were incubated with blocking buffer and CD28 antigen or blocking buffer alone. Without washing or aspirating, clonal phage supematants were then added to the wells and incubated for a short time. Wells were then washed followed by detection of bound phage using a horse radish conjugated anti-M13 antibody.

[2] = molecular target: T1, Anti-CD28 Fab (SEQ ID NOs: 696, 697); assay: phage binding ELISA on plate-captured anti-CD28 Fab pre-incubated with CD28 antigen (competitor: CD28)
Description: as §1

[3] = molecular target: T2, Anti-CD28 Fab (SEQ ID NOs: 696, 697); assay: phage binding ELISA on captured anti-CD28 Fab; competitor: CD28 antigen pre-incubated in the well;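 note: clonal phage supernatants added briefly to wells preblocked with or without CD28, bound phage detected through an HRP-linked anti-M13 antibody, wells with blocking buffer alone as comparison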
T2 construct: Biotinylated and captured on neutravidin coated plates in the phage ELISA
T2 sequence (VH, as listed by the source, chain 1 of 2): as the sequence (VH, as listed by the source, chain 1 of 2) above
T2 sequence (VL, as listed by the source, chain 2 of 2): as the sequence (VL, as listed by the source, chain 2 of 2) above
Description: (§2) Clonal phage were harvested as crude supematants and screened via standard ELISAs. […] Prior to the addition of clonal phage, wells were incubated with blocking buffer and CD28 antigen or blocking buffer alone. Without washing or aspirating, clonal phage supematants were then added to the wells and incubated for a short time. Wells were then washed followed by detection of bound phage using a horse radish conjugated anti-M13 antibody. Clonal phage of interest were then sent for sequence analysis.

[4] = molecular target: T2, Anti-CD28 Fab (SEQ ID NOs: 696, 697); assay: phage binding ELISA; biotinylated anti-CD28 Fab on neutravidin plate, clonal phage detected with anti-M13-HRP;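 note: crude clonal phage supernatants added briefly to wells preincubated in blocking buffer with or without CD28 antigen, then washed before detection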
Description: as §2

[5] = molecular target: Anti-CD28 Fab (SEQ ID NOs: 696, 697); assay: phage binding ELISA; Fab-coated wells pre-incubated with CD28 antigen as competitor;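 note: clonal phage supernatants added to wells preincubated with CD28 antigen or blocking buffer only, bound phage detected with HRP-conjugated anti-M13 antibody, buffer-only wells as control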
Target sequence in this assay (VH, as listed by the source, chain 1 of 2): as the sequence (VH, as listed by the source, chain 1 of 2) above
Target sequence in this assay (VL, as listed by the source, chain 2 of 2): as the sequence (VL, as listed by the source, chain 2 of 2) above
Description: as §1

[6] = molecular target: Anti-CD28 Fab (SEQ ID NOs: 696, 697); assay: phage binding ELISA; biotinylated Fab on neutravidin plate, bound phage detected with anti-M13-HRP
Target sequence in this assay (VH, as listed by the source, chain 1 of 2): as the sequence (VH, as listed by the source, chain 1 of 2) above
Target sequence in this assay (VL, as listed by the source, chain 2 of 2): as the sequence (VL, as listed by the source, chain 2 of 2) above
Description: as §1

[7] = molecular target: T3, Anti-CD28 Fab (SEQ ID NOs: 696, 697); assay: phage ELISA on captured anti-CD28 Fab; wells pre-incubated with CD28 antigen as competitor;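 note: clonal phage from crude supernatants added to wells pretreated with blocking buffer with or without CD28, bound phage read by ELISA with HRP-conjugated anti-M13 antibody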
T3 construct: In the phage ELISA the Fab was biotinylated and captured on neutravidin coated plates
T3 sequence (VH, as listed by the source, chain 1 of 2): as the sequence (VH, as listed by the source, chain 1 of 2) above
T3 sequence (VL, as listed by the source, chain 2 of 2): as the sequence (VL, as listed by the source, chain 2 of 2) above
Description: as §2

[8] = molecular target: T3, Anti-CD28 Fab (SEQ ID NOs: 696, 697); assay: phage ELISA; biotinylated anti-CD28 Fab on neutravidin plate, bound phage detected with anti-M13-HRP
Description: as §1

Binder: SCAAGAMWPWPVCV [Phage-1522 (Peptide-92 library sequence, SEQ ID NO: 1818)]
- Anti-CD28 Fab (SEQ ID NOs: 696, 697) signal [1]: 1.59
- Anti-CD28 Fab signal in the presence of CD28 [2]: 0.07

Binder: SCAAGAQYGWPMCL [Phage-1523 (Peptide-92 library sequence, SEQ ID NO: 1819)]
- Anti-CD28 Fab (SEQ ID NOs: 696, 697) signal [1]: 1.59
- Anti-CD28 Fab signal in the presence of CD28 [2]: 0.05

Binder: WCAAGASYPWPWCL [Phage-1524 (Peptide-92 library sequence, SEQ ID NO: 1820)]
- Anti-CD28 Fab (SEQ ID NOs: 696, 697) signal [1]: 1.58
- Anti-CD28 Fab signal in the presence of CD28 [2]: 0.05

Binder: TCTAVFPYEWPRCL [Phage-1525 (Peptide-92 library sequence, SEQ ID NO: 1821)]
- Anti-CD28 Fab (SEQ ID NOs: 696, 697) signal [1]: 1.57
- Anti-CD28 Fab signal in the presence of CD28 [2]: 0.07

Binder: SCAAGATFHWPMCF [Phage-1526 (Peptide-92 library sequence, SEQ ID NO: 1822)]
- Anti-CD28 Fab (SEQ ID NOs: 696, 697) signal [1]: 1.57
- Anti-CD28 Fab signal in the presence of CD28 [2]: 0.09

Binder: TCSAGFSYKWPWCL [Phage-1527 (Peptide-92 library sequence, SEQ ID NO: 1823)]
- Anti-CD28 Fab (SEQ ID NOs: 696, 697) signal [1]: 1.57
- Anti-CD28 Fab signal in the presence of CD28 [2]: 0.06

Binder: TCAAGAMWTWPECL [Phage-1528 (Peptide-92 library sequence, SEQ ID NO: 1824)]
- Anti-CD28 Fab (SEQ ID NOs: 696, 697) signal [1]: 1.57
- Anti-CD28 Fab signal in the presence of CD28 [2]: 0.07

Binder: TCAAGATYPWPECM [Phage-1529 (Peptide-92 library sequence, SEQ ID NO: 1825)]
- Anti-CD28 Fab (SEQ ID NOs: 696, 697) signal [1]: 1.57
- Anti-CD28 Fab signal in the presence of CD28 [2]: 0.06

Binder: LCAAGFNYPWPLCL [Phage-1530 (Peptide-92 library sequence, SEQ ID NO: 1826)]
- Anti-CD28 Fab (SEQ ID NOs: 696, 697) signal [1]: 1.57
- Anti-CD28 Fab signal in the presence of CD28 [2]: 0.05

Binder: MCTAGATYPWPACL [Phage-1531 (Peptide-92 library sequence, SEQ ID NO: 1827)]
- Anti-CD28 Fab (SEQ ID NOs: 696, 697) signal [1]: 1.56
- Anti-CD28 Fab signal in the presence of CD28 [2]: 0.07

Binder: SCAAGAHYKWPVCI (tested as crude phage supernatant) [Phage-1547]
- Anti-CD28 Fab signal in the presence of CD28 (phage binding ELISA) [3]: 0.06
- Anti-CD28 Fab signal (phage binding ELISA) [4]: 1.51

Binder: ICAAGFIWSWPACF (tested as crude phage supernatant) [Phage-1548]
- Anti-CD28 Fab signal in the presence of CD28 (phage binding ELISA) [3]: 0.08
- Anti-CD28 Fab signal (phage binding ELISA) [4]: 1.51

Binder: TCAAGATYSWPDCF (tested as crude phage supernatant) [Phage-1549]
- Anti-CD28 Fab signal in the presence of CD28 (phage binding ELISA) [3]: 0.06
- Anti-CD28 Fab signal (phage binding ELISA) [4]: 1.51

Binder: QCAAGAMWTWPVCF (tested as crude phage supernatant) [Phage-1550]
- Anti-CD28 Fab signal in the presence of CD28 (phage binding ELISA) [3]: 0.07
- Anti-CD28 Fab signal (phage binding ELISA) [4]: 1.5

Binder: TCAAGAHYLWPHCL (tested as crude phage supernatant) [Phage-1551]
- Anti-CD28 Fab signal in the presence of CD28 (phage binding ELISA) [3]: 0.12
- Anti-CD28 Fab signal (phage binding ELISA) [4]: 1.5

Binder: PCAAGAMWAWPYCL (tested as crude phage supernatant) [Phage-1552]
- Anti-CD28 Fab signal in the presence of CD28 (phage binding ELISA) [3]: 0.05
- Anti-CD28 Fab signal (phage binding ELISA) [4]: 1.49

Binder: NCSAGATWPWPMCF (tested as crude phage supernatant) [Phage-1553]
- Anti-CD28 Fab signal in the presence of CD28 (phage binding ELISA) [3]: 0.1
- Anti-CD28 Fab signal (phage binding ELISA) [4]: 1.49

Binder: TCAAGVHFGWPLCF (tested as crude phage supernatant) [Phage-1554]
- Anti-CD28 Fab signal in the presence of CD28 (phage binding ELISA) [3]: 0.07
- Anti-CD28 Fab signal (phage binding ELISA) [4]: 1.49

Binder: TCAAGATYTWPTCF (tested as crude phage supernatant) [Phage-1555]
- Anti-CD28 Fab signal in the presence of CD28 (phage binding ELISA) [3]: 0.05
- Anti-CD28 Fab signal (phage binding ELISA) [4]: 1.48

Binder: TCAAGASWEWPACL (tested as crude phage supernatant) [Phage-1556]
- Anti-CD28 Fab signal in the presence of CD28 (phage binding ELISA) [3]: 0.08
- Anti-CD28 Fab signal (phage binding ELISA) [4]: 1.48

Binder: TCAAGAMYQWPECF (tested as crude phage supernatant) [Phage-1557]
- Anti-CD28 Fab signal in the presence of CD28 (phage binding ELISA) [3]: 0.06
- Anti-CD28 Fab signal (phage binding ELISA) [4]: 1.48

Binder: TCAAGAHYTWPTCL (tested as crude phage supernatant) [Phage-1558]
- Anti-CD28 Fab signal in the presence of CD28 (phage binding ELISA) [3]: 0.07
- Anti-CD28 Fab signal (phage binding ELISA) [4]: 1.47

Binder: TCSAGATYKWPVCL (tested as crude phage supernatant) [Phage-1559]
- Anti-CD28 Fab signal in the presence of CD28 (phage binding ELISA) [3]: 0.06
- Anti-CD28 Fab signal (phage binding ELISA) [4]: 1.47

Binder: SCSAGATYEWPYCF (tested as crude phage supernatant) [Phage-1560]
- Anti-CD28 Fab signal in the presence of CD28 (phage binding ELISA) [3]: 0.06
- Anti-CD28 Fab signal (phage binding ELISA) [4]: 1.47

Binder: TCSAGAEYTWPLCF [Phage-1591]
- Anti-CD28 Fab signal in the presence of CD28 [5]: 0.08
- Anti-CD28 Fab signal [6]: 1.4

Binder: SCAAGAAWGWPACF [Phage-1592]
- Anti-CD28 Fab signal in the presence of CD28 [5]: 0.09
- Anti-CD28 Fab signal [6]: 1.39

Binder: TCAAGATWLWPVCL [Phage-1593]
- Anti-CD28 Fab signal in the presence of CD28 [5]: 0.08
- Anti-CD28 Fab signal [6]: 1.39

Binder: SCSAFFHFHWPACL [Phage-1594]
- Anti-CD28 Fab signal in the presence of CD28 [5]: 0.06
- Anti-CD28 Fab signal [6]: 1.38

Binder: TCSAGANWVWPLCL [Phage-1595]
- Anti-CD28 Fab signal in the presence of CD28 [5]: 0.07
- Anti-CD28 Fab signal [6]: 1.38

Binder: TCSAGAHWVWPYCL [Phage-1596]
- Anti-CD28 Fab signal in the presence of CD28 [5]: 0.09
- Anti-CD28 Fab signal [6]: 1.37

Binder: SCAAGATYGWPECF [Phage-1597]
- Anti-CD28 Fab signal in the presence of CD28 [5]: 0.07
- Anti-CD28 Fab signal [6]: 1.36

Binder: SCAAGATWAWPACL [Phage-1598]
- Anti-CD28 Fab signal in the presence of CD28 [5]: 0.06
- Anti-CD28 Fab signal [6]: 1.36

Binder: LCSAGAMWEWPLCL [Phage-1599]
- Anti-CD28 Fab signal in the presence of CD28 [5]: 0.07
- Anti-CD28 Fab signal [6]: 1.36

Binder: TCSAGAGYPWPTCL [Phage-1600]
- Anti-CD28 Fab signal in the presence of CD28 [5]: 0.06
- Anti-CD28 Fab signal [6]: 1.36

Binder: TCSAGAAWTWPLCF [Phage-1601]
- Anti-CD28 Fab signal in the presence of CD28 [5]: 0.06
- Anti-CD28 Fab signal [6]: 1.36

Binder: TCSAGAAYEWPECF [Phage-1602]
- Anti-CD28 Fab signal in the presence of CD28 [5]: 0.06
- Anti-CD28 Fab signal [6]: 1.36

Binder: TCSAGALWEWPMCF [Phage-1603]
- Anti-CD28 Fab signal in the presence of CD28 [5]: 0.06
- Anti-CD28 Fab signal [6]: 1.35

Binder: PCAAGAHYTWPTCL [Phage-1604]
- Anti-CD28 Fab signal in the presence of CD28 [5]: 0.07
- Anti-CD28 Fab signal [6]: 1.34

Binder: SCSAGATYTWPACL [Phage-1605]
- Phage binding ELISA, Anti-CD28 Fab signal in the presence of CD28 [7]: 0.07
- Phage binding ELISA, Anti-CD28 Fab signal [8]: 1.34

Binder: TCSAGAHYSWPKCF [Phage-1606]
- Phage binding ELISA, Anti-CD28 Fab signal in the presence of CD28 [7]: 0.07
- Phage binding ELISA, Anti-CD28 Fab signal [8]: 1.33

Binder: SCAAGAHYPWPECL [Phage-1607]
- Phage binding ELISA, Anti-CD28 Fab signal in the presence of CD28 [7]: 0.05
- Phage binding ELISA, Anti-CD28 Fab signal [8]: 1.32

Binder: SCAEVFNYVWPFCF [Phage-1608]
- Phage binding ELISA, Anti-CD28 Fab signal in the presence of CD28 [7]: 0.07
- Phage binding ELISA, Anti-CD28 Fab signal [8]: 1.32

Binder: TCAAGAAYTWPVCF [Phage-1609]
- Phage binding ELISA, Anti-CD28 Fab signal in the presence of CD28 [7]: 0.08
- Phage binding ELISA, Anti-CD28 Fab signal [8]: 1.32

Binder: SCAAGAMWEWPKCF [Phage-1610]
- Phage binding ELISA, Anti-CD28 Fab signal in the presence of CD28 [7]: 0.09
- Phage binding ELISA, Anti-CD28 Fab signal [8]: 1.32

Binder: SCADGAIWEWPWCF [Phage-1611]
- Phage binding ELISA, Anti-CD28 Fab signal in the presence of CD28 [7]: 0.07
- Phage binding ELISA, Anti-CD28 Fab signal [8]: 1.32

Binder: TCAAGATYEWPSCL [Phage-1612]
- Phage binding ELISA, Anti-CD28 Fab signal in the presence of CD28 [7]: 0.09
- Phage binding ELISA, Anti-CD28 Fab signal [8]: 1.32
